Experiment [1] deals with human OX40 receptor, cell-expressed (DO11.10-hOX40) (human) (UniProt P43489). Kind of experiment: cell-based or functional assay.
For experiment [2] the target is unchanged. As to the kind of experiment: cell-based or functional assay. The source holds these as a separate data set.
The target is the same in experiment [3]. Kind of experiment: cell-based or functional assay. This is another data set of the same source.
Experiment [4] shares this target. As to the kind of experiment: cell-based or functional assay. The source holds these as a separate data set.
For experiment [5] the target is unchanged. Kind of experiment: flow cytometry on DO11.10-hOX40 cells.
In experiment [6] the target is cynomolgus OX40 receptor, cell-expressed (DO11.10-cOX40) (cynomolgus). Kind of experiment: flow cytometry on DO11.10-cOX40 cells. For orientation: Flow cytometry measures light scatter and fluorescence of single cells or particles in a stream.

The source of these data is US20250361312A1.

Like-named read-outs stand apart in the source and are kept apart here.

The EC50 is the midpoint of the concentration-response curve. Lower therefore signals greater potency.

Sequence of human OX40 receptor, cell-expressed (DO11.10-hOX40) (human) (P43489 29-277): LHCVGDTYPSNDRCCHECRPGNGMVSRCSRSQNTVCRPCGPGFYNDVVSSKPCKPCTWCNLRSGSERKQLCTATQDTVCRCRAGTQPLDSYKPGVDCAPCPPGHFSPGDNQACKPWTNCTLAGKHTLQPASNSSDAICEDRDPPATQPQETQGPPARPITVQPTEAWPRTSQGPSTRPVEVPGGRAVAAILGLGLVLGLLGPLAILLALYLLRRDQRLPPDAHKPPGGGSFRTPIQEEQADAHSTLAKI
Sequence of cynomolgus OX40 receptor, cell-expressed (DO11.10-cOX40) (cynomolgus) (P43489 other isoform, or with tags, fused parts or gaps): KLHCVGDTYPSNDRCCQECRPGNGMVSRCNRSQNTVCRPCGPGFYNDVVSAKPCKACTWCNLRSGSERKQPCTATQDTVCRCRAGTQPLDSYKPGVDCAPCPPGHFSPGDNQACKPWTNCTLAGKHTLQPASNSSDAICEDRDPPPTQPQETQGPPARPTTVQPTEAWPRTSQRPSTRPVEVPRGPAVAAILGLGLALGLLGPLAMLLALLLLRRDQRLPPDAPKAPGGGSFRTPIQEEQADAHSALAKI

In experiment [1], G1/11D4 (antibody) came in with an EC50 of IL-2 release, HPAC cells present, Xlink (anti-hCH2) of 228 pM; an EC50 of IL-2 release, Xlink (anti-hCH2) of 199 pM; a Max response, HPAC cells present, Xlink (anti-hCH2) of 14800 mIL-2 pg/ml; a Max response, Xlink (anti-hCH2) of 21900 mIL-2 pg/ml. In experiment [2], this substance had an EC50 of IL-2 release, Xlink (anti-hCH2) of 196 pM and a Max response, Xlink (anti-hCH2) of 7200 mIL-2 pg/ml. In experiment [3], the EC50 of IL-2 release, Xlink (anti-hCH2) is 0.153 pM and the Max response, Xlink (anti-hCH2) was found to be 25000 mIL-2 pg/ml. In experiment [4], the EC50 of IL-2 release, Xlink (anti-hCH2) was found to be 140 pM and the Max response, Xlink (anti-hCH2) amounted to 24500 mIL-2 pg/ml.
In experiment [1], G1AA/11D4 (antibody) displayed an EC50 of IL-2 release, crosslinked (anti-human CH2 mAb) of 49.3 pM and a Max response, crosslinked of 26700 hIL-2 pg/ml. The same substance returned an EC50 in experiment [5] of 814 pM. In addition, in experiment [6], the EC50 was found to be 213 pM.
